Laboratory results from article PMC13635227 (Nature Communications, 2026).
The star is where a group is joined. Biotin = O=C1N[C@H]2[C@H](CS[C@H]2CCCCC(=O)*)N1; AEEA = NCCOCCOCC(=O)O

What was measured:
Assay in all cases: BLI
[1] = biological target: T1, Biotin-PEG-EAEEPSLLKKLLLAPANTQ-NH2 (LXXLL motif peptide, amino acids 135-153 of PPAR coactivator 1α, PGC-1α) (SMILES …)
T1 peptide: {Biotin-AEEA}-EAEEPSLLKKLLLAPANTQ-NH2

[2] = biological target: T1, Biotin-PEG-EAEEPSLLKKLLLAPANTQ-NH2 …
[3] = biological target: T1, Biotin-PEG-EAEEPSLLKKLLLAPANTQ-NH2 …

EC50 of palmitic acid (small-molecule ligand of PPAR-α) in promoting the binding [1]: 190 µM
EC50 of TFA (small-molecule ligand of PPAR-α) in promoting the binding [2]: 4900 µM
EC50 of ciprofibrate (small-molecule ligand of PPAR-α) in promoting the binding [3]: 5.4 µM
B1: Full-length mouse PPAR-α (peroxisome proliferator-activated receptor α), tag-free (natural protein, UniProt P23204 1-468, looked up)
chain: MVDTESPICPLSPLEADDLESPLSEEFLQEMGNIQEISQSIGEESSGSFGFADYQYLGSCPGSEGSVITDTLSPASSPSSVSCPVIPASTDESPGSALNIECRICGDKASGYHYGVHACEGCKGFFRRTIRLKLVYDKCDRSCKIQKKNRNKCQYCRFHKCLSVGMSHNAIRFGRMPRSEKAKLKAEILTCEHDLKDSETADLKSLGKRIHEAYLKNFNMNKVKARVILAGKTSNNPPFVIHDMETLCMAEKTLVAKMVANGVEDKEAEVRFFHCCQCMSVETVTELTEFAKAIPGFANLDLNDQVTLLKYGVYEAIFTMLSSLMNKDGMLIAYGNGFITREFLKNLRKPFCDIMEPKFDFAMKFNALELDDSDISLFVAAIICCGDRPGLLNIGYIEKLQEGIVHVLKLHLQSNHPDDTFLFPKLLQKMVDLRQLVTEHAQLVQVIKKTESDAALHPLLQEIYRDMY
